These results are taken from PMC6753178.

Like-named read-outs stand apart in the source and are kept apart here.

The target of test [1] is CCR7 R209A (human) (UniProt P32248).
Test [2] deals with human CCR7 wild type (human) (UniProt P32248).
Test [3] shares this target. This is another data set of the same source.
The target in test [4] is CCR7 R209A (human) (UniProt P32248). This is another data set of the same source.
Test [5] has as its target human CCR7 wild type (human) (UniProt P32248). The source holds these as a separate data set.
Test [6] has as its target CCR7 L61A (human) (UniProt P32248).
In test [7] the target is CCR7 W114A (human) (UniProt P32248).
The target in test [8] is CCR7 R54A (human) (UniProt P32248).
Test [9] addresses CCR7 A118S (human) (UniProt P32248).
For test [10], the target named is CCR7 Y65A (human) (UniProt P32248).
For test [11], the target named is CCR7 E193A (human) (UniProt P32248).
Test [12] concerns the target CCR7 R209A (human) (UniProt P32248). This is another data set of the same source.
In test [13] the target is CCR7 K137A (human) (UniProt P32248).
Test [14] addresses CCR7 Y308A (human) (UniProt P32248).
Test [15] concerns the target CCR7 F133A (human) (UniProt P32248).
Test [16] concerns the target CCR7 S117A (human) (UniProt P32248).
The target of test [17] is CCR7 N305A (human) (UniProt P32248).
Test [18] deals with CCR7 K50A (human) (UniProt P32248).
The target of test [19] is CCR7 E205A (human) (UniProt P32248).
Test [20] addresses CCR7 L61A (human) (UniProt P32248). The source holds these as a separate data set.
The target in test [21] is CCR7 K57A (human) (UniProt P32248).
Test [22] addresses CCR7 F107A (human) (UniProt P32248).
Test [23] has as its target CCR7 W114A (human) (UniProt P32248). This is another data set of the same source.
The target in test [24] is CCR7 R54A (human) (UniProt P32248). This is another data set of the same source.

Turning to “human chemokine CCL19 (from UniProt Q99731 22-98) (ligand)”, the Transwell migration of stably transfected 300–19 pre-B cells: activity at 10 nM CCL19 relative to WT CCR7 in test [1] is 42 % of WT. The G protein signaling (BRET cAMP Camyel sensor, CHO-k1 cells transfected with CCR7): logEC50 in [2] was -9.4 logEC50 (M). Besides, the β-arrestin-2 recruitment (bystander BRET, CHO-k1 cells transfected with CCR7): logEC50 in [2] is -7.9 logEC50 (M). Further, in test [3], the G protein signaling (BRET cAMP Camyel sensor, CHO-k1 cells transfected with CCR7): signal at 100 nM chemokine, normalized to CCL19 turned out to be 92%. Also, the Transwell migration of stably transfected 300–19 pre-B cells: % specific migration at 10 nM CCL19 in test [4] was 5%; in test [5], 11.6%; in [6], 7.5%; in test [7], 1%; in [8], -0.1%. Besides, the G protein signaling (BRET cAMP Camyel sensor, transfected CHO-k1 cells): -logEC50 (M) of CCL19 in test [9] was 9.7 -logEC50 (M); in test [10], 9 -logEC50 (M); in test [11] it was 9.6 -logEC50 (M); in test [12], 8.5 -logEC50 (M); in test [13] it was 9.2 -logEC50 (M); in test [14], 9.1 -logEC50 (M). In addition, the G protein signaling (BRET cAMP Camyel sensor, transfected CHO-k1 cells): -logEC50 (M) of CCL19 in test [15] was 8.7 -logEC50 (M); in [16], 9.5 -logEC50 (M); in [17] it was 8.6 -logEC50 (M); in test [18], 8.5 -logEC50 (M); in test [19] it was 9.2 -logEC50 (M); in [20] it was 8.9 -logEC50 (M). In addition, the G protein signaling (BRET cAMP Camyel sensor, transfected CHO-k1 cells): -logEC50 (M) of CCL19 is 9.2 -logEC50 (M) in [21], 8.9 -logEC50 (M) in test [22], 8 -logEC50 (M) in test [23] and 7.1 -logEC50 (M) in test [24]. Moreover, the G protein signaling (BRET cAMP Camyel sensor, transfected CHO-k1 cells): FMut, fold change of CCL19 potency compared to WT CCR7 in test [9] is 2 fold; in test [10] it was 2 fold; in test [11], 3 fold; in test [12] it was 8 fold; in [13], 3 fold; in test [14], 2 fold. The G protein signaling (BRET cAMP Camyel sensor, transfected CHO-k1 cells): FMut, fold change of CCL19 potency compared to WT CCR7 in test [15] amounted to 1 fold; in test [16] it was 1 fold; in test [17], 4 fold; in [18], 13 fold; in test [19], 3 fold; in [20], 3 fold. In addition, the G protein signaling (BRET cAMP Camyel sensor, transfected CHO-k1 cells): FMut, fold change of CCL19 potency compared to WT CCR7 in [21] stood at 2 fold; in test [22], 2 fold; in test [23], 13 fold; in test [24] it was 100 fold.
The molecule “human chemokine CCL21 (from UniProt O00585 24-134) (ligand)” returned a Transwell migration of stably transfected 300–19 pre-B cells: activity at 10 nM CCL21 relative to WT CCR7 in [1] of 2.5 fold. The Transwell migration of stably transfected 300–19 pre-B cells: % specific migration at 10 nM CCL21 worked out at 10.6% in test [4]; 5.1% in [5]; 4% in test [6]; 0.6% in test [7]; 0.3% in [8]. For the same molecule, the G protein signaling (BRET cAMP Camyel sensor, transfected CHO-k1 cells): efficacy at 100 nM CCL21, normalized to WT CCR7 in [9] is 67 % of WT; in test [10], 44 % of WT; in [11], 45 % of WT; in [12] it was 132 % of WT; in [13], 43 % of WT; in test [14] it was 38 % of WT. The G protein signaling (BRET cAMP Camyel sensor, transfected CHO-k1 cells): efficacy at 100 nM CCL21, normalized to WT CCR7 in [15] is 27 % of WT; in test [16], 68 % of WT; in test [17], 53 % of WT; in test [19] it was 48 % of WT; in [20] it was 44 % of WT; in test [21], 99 % of WT. Also, the G protein signaling (BRET cAMP Camyel sensor, transfected CHO-k1 cells): efficacy at 100 nM CCL21, normalized to WT CCR7 in [22] is 76 % of WT; in test [23], 32 % of WT.

B1: CCL19^CCL21N-term chimera (ligand)
chain: SDGGAQDCCLKYSQRKIPGYIVRNFHYLLIKDGCRVPAVVFTTLRGRQLCAPPDQPWVERIIQRLQRTSAKMKRRSS
Take B1: in test [3], the G protein signaling (BRET cAMP Camyel sensor, CHO-k1 cells transfected with CCR7): logEC50 is -8.9 logEC50 (M) and the G protein signaling (BRET cAMP Camyel sensor, CHO-k1 cells transfected with CCR7): signal at 100 nM chemokine, normalized to CCL19 amounted to 90%.
